The target of this test is human PD-L1 on antigen-presenting cells of the Promega J1250 assay (human) (UniProt Q9NZQ7). Put plainly: cell-based or functional assay.

The values that follow come from US20230390369A1.

Turning to atezolizumab (antibody), the Luminescence (RLU) at 0.1 µg/mL is 241000 RLU and the Luminescence (RLU) at 20 µg/mL stood at 1.47e+06 RLU.
